Assay results taken from paper PMC5698441, “Molecular basis of AKAP79 regulation by calmodulin” (Nature Communications, 2017).

Key:
calcineurin I396A/I400A = calcineurin I396A/I400A (UniProt Q08209)
calcineurin, WT = calcineurin, WT (UniProt Q08209)

half-maximal CaM concentration (KCaM) for activation of phosphatase activity against a phosphorylated RII peptide (calcineurin I396A/I400A): 670 nM
half-maximal CaM concentration (KCaM) for activation of phosphatase activity against a phosphorylated RII peptide (calcineurin, WT): 30 nM
Substance: human CaM, untagged (pET28-a) (from UniProt P0DP23 1-149) (natural protein)
